Drawing on US20220411504A1, this text covers Kd and GeoMean fluorescence (maximum value) for six molecules.

Assay [1] has as its target human Kallikrein-2 6-His protein (soluble hK2) (human) (UniProt P20151). As to the kind of experiment: SPR, antibody captured by anti-Fc, soluble hK2 injected. A general note: Surface plasmon resonance follows binding to a sensor surface in real time, without labels.
In another assay the target is HLA-A on cells (human) (UniProt P04439). As to the kind of experiment: flow cytometry, IgG1 mAb on cells expressing HLA-A. (In flow cytometry, cells or beads pass a laser one at a time.)
In another assay the target is HLA-B on cells (human) (UniProt P01889). As to the kind of experiment: flow cytometry, IgG1 mAb on cells expressing HLA-B.
A further assay deals with HLA-C on cells (human) (UniProt P10321). As to the kind of experiment: flow cytometry, IgG1 mAb on cells expressing HLA-C.

B1: KL2B413 (scFv-LH-Fc) (Fc fusion, not shown: a dimerising Fc or GST)
scFv: EIVLTQSPSFLSASVGDRVTITCRASQGISSYLSWYQQKPGKAPKLLIYATSTLQSGVPSRFSGSGSGTEFTLTISSLQPEDFATYYCQQLNSYPRTFGQGTKVEIKGGSEGKSSGSGSESKSTGGSEVQLVESGGGLVQPGGSLRLSCAASGFTFSSYWMTWVRQAPGKGLEWVANIKQDGSERYYVDSVKGRFTISRDNAKNSLYLQMNSLRAEDTAVYYCARDQNYDILTGHYGMDVWGQGTTVTVSS
The molecule B1 yielded a Kd in assay [1] of 34.3 nM.

B2: KL2B359 (scFv-LH-Fc) (Fc fusion, not shown: a dimerising Fc or GST)
scFv: EIVLTQSPATLSLSPGERATLSCRASESVEYFGTSLMHWYQQKPGQPPRLLIYAASNVESGIPARFSGSGSGTDFTLTISSVEPEDFAVYFCQQTRKVPYTFGGGTKVEIKGGSEGKSSGSGSESKSTGGSQVQLQESGPGLVKPSQTLSLTCTVSGNSITSDYAWNWIRQFPGKRLEWIGYISYSGSTTYNPSLKSRVTISRDTSKNQFSLKLSSVTAADTAVYYCATGYYYGSGFWGQGTLVTVSS
In turn, B2 registered a Kd in assay [1] of 0.7 to 1 nM.

B3: KL2B242 (antibody, human IgG4 S228P, lambda, F234A L235A, V domains shown)
VH: QVQLQESGPGLVKPSETLSLTCTVSGGSISSYYWSWLRQPAGSGLEWIGRLYVSGFTNYNPSLKSRVTLSLDPSRNQLSLKLSSVTAADTAVYYCAGDSGNYWGWFDPWGQGTLVTVSS
VL: SYELTQPPSVSVSPGETASITCSGDQLGENYACWYQQKPGQSPVLVIYQDSKRPSGIPERFSGSNSGNTATLTISGTQALDEADYYCQAWDNSIVVFGGGTKLTVLG
Take B3: the dissociation constant (Kd) in assay [1] was determined as 0.04 nM.

B4: MHGB689 (antibody, human IgG1, kappa, V domains shown)
VH: QVQLQQSGPGLVKPSQTLSLTCVISGDSVSSNRAAWNWIRQSPSRGLEWLGRTYYRSKWYNDYAVSVKSRITINSDTSKNQISLQLNSVTPEDTAVYYCARVRPGIPFDYWGQGTTVTVSS
VL: DIQMTQSPDSLAVSLGERATINCESSQSVLFSSNKKNYLAWYQQKPGQPPKLLIYWASTRESGVPDRFSGSGSGTDFTLTINRLQAEDVAVYYCQQYNSTPWTFGQGTKVEIKR
As to B4, the GeoMean fluorescence (maximum value) with HLA-A on cells (human) came out at 2540; in the assay with HLA-B on cells (human) it was 5790; with HLA-C on cells (human), 266.

B5: KL2B53 (antibody, human IgG4 S228P, kappa, F234A L235A, V domains shown)
VH: EVQLVESGGGVVQPGRSLRLSCVASGFTFSSYDIHWVRQAPGKGLEWVAIISYDGSKKDYTDSVKGRFTISRDNSKNTLYLQMDSLRVEDSAVYSCARESGWSHYYYYGMDVWGQGTMVTVSS
VL: DIVMTQSPSSLSASVGDRVTITCRASQDISNYLAWYQQKPGKVPKFLIYAASTLHSGVPSRFSGSGSGTDFTLTISSLQPEDVATYYCQKYNSAPYTFGQGTRLEIKR
In turn, B5 gave a Kd in assay [1] of 0.08 nM.

B6: KL2B30 (antibody, human IgG4 S228P, kappa, F234A L235A, V domains shown)
VH: QVQLQESGPGLVKPSETLSLTCTVSGGSISSYYWSWIRQPPGKGLEWIGYIYYSGSTNYNPSLKSRVTISVDTSKNQFSLKLSSVTAADTAVYYCAGTTIFGVVTPNFYYGMDVWGQGTTVTVSS
VL: DIQMTQSPSFLSASVGDRVTITCRASQGISSYLAWYQQKPGKAPKFLIYAASTLQSGVPSRFSGSGSGTEFTLTISSLQPEDFATYYCQQLNSYPLTFGGGTKVEIKR
The molecule B6 registered a Kd in assay [1] of 0.46 nM.

By Kd is commonly meant the equilibrium constant for the complex coming apart.
